Data reported in the supplement of paper PMC7877785.
± gives the uncertainty stated by the source.

Experiment: self-splicing fitness, log relative to wild type (ln ratio); higher = more splicing; Tetrahymena group I intron in knt gene, E. coli kanamycin selection, DiMSum; sequences stand for … in CUCUCU…GGAGGGAAAAGUUAUCAGGCAUGCACCUGGUAGCUAGUCUUUAAACCAAUAGAUUGCAUCGGUUUAAAAGGCAAGACCGUCAAAUUGCGGGAAAGGGGUCAACAGCCGUUCAGUACCAAGUCUCAGGGGAAACUUUGAGAUGGCCUUGCAAAGGGUAUGGUAAUAAGCUGACGGACAUGGUCCUAACCACGCAGCCAAGUCCUAAGUCAACAGAUCUUCUGUUGAUAUGGAUGCAGUUCACAGACUAAAUGUCGGUCGGGGAAGAUGUAUUCUUCUCAUAAGAUAUAGUCGGACCUCUCCUUAAUGGGAGCUAGCGGAUGAAGUGAUGCAACACUGGAGCCGCUGGGAACUAAUUUGUAUGCGAAAGUAUAUUGAUUAGUUUUGGAGUACUCGUGGUCG
Summary of the method: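 The eight P1ex-region nucleotides of an intron in the knt kanamycin-resistance gene on pET-22b(+) were all randomised and the library put into E. coli BL21(DE3). Six replicate transformations were grown overnight at 37°C or 30°C on LB agar with or without 25 μg/mL kanamycin, together with 100 μg/mL carbenicillin, 50 μM IPTG and 0.2% rhamnose. Colonies were pooled and amplicon-sequenced on an Illumina HiSeq 2500. Fitness from DiMSum is the error-weighted combination of wild-type-normalised replicate fold changes, kanamycin over none.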

Sequence | self-splicing fitness (ln) (30 °C) | self-splicing fitness (ln) (37 °C)
GACCAGCAAUAUUACGGCAA | -0.359 ± 0.067 | -0.32 ± 0.078
GACCAGCAAUAUUACGGGCG | 0.17 ± 0.059 | 0.374 ± 0.078
GACCAGCAAUAUUACGGUAU | -1.29 ± 0.056 | -0.678 ± 0.068
GACCAGCAAUAUUACGUAUA | -1.06 ± 0.059 | -0.251 ± 0.079
GACCAGCAAUAUUACGUCUU | 0.335 ± 0.05 | 0.369 ± 0.068
GACCAGCAAUAUUACGUGAU | -0.306 ± 0.05 | -0.151 ± 0.063
GACCAGCAAUAUUACGUGUU | -3.73 ± 0.096 | -2.44 ± 0.11
GACCAGCAAUAUUACGUUAU | -0.752 ± 0.045 | -0.147 ± 0.062
GACCAGCAAUAUUACGUUGU | -1.11 ± 0.047 | -0.336 ± 0.063
GACGAGCAAUAUUACGAACC | -3.09 ± 0.18 | -0.495 ± 0.13
GACGAGCAAUAUUACGAACG | -0.929 ± 0.34 | –
GACGAGCAAUAUUACGAAUU | -3.49 ± 0.14 | -2.55 ± 0.14
GACGAGCAAUAUUACGACAA | – | -1.24 ± 0.24
GACGAGCAAUAUUACGACUA | -1.94 ± 0.45 | -0.17 ± 0.37
GACGAGCAAUAUUACGAUCC | -0.986 ± 0.21 | -0.739 ± 0.4
GACGAGCAAUAUUACGAUCG | -2.3 ± 0.23 | -2.03 ± 0.19
GACGAGCAAUAUUACGCAGC | -3.4 ± 0.27 | -1.69 ± 0.28
GACGAGCAAUAUUACGCAUU | -2.74 ± 0.21 | -2.44 ± 0.21
GACGAGCAAUAUUACGCGCG | -3.15 ± 0.16 | -2.7 ± 0.25
GACGAGCAAUAUUACGGCAA | -1.91 ± 0.2 | -0.607 ± 0.14
GACGAGCAAUAUUACGGGUG | -4.16 ± 0.31 | -1.89 ± 0.16
GACGAGCAAUAUUACGGUCG | -2.31 ± 0.097 | -0.868 ± 0.12
GACGAGCAAUAUUACGGUUC | – | -3.11 ± 0.47
GACGAGCAAUAUUACGUAAC | -3.16 ± 0.23 | -0.414 ± 0.18
GACGAGCAAUAUUACGUAAG | -3.67 ± 0.41 | -0.245 ± 0.22

Sequence | self-splicing fitness (ln) (30 °C) | self-splicing fitness (ln) (37 °C)
GACGAGCAAUAUUACGUAAU | -2.61 ± 0.34 | -2.16 ± 0.17
GACGAGCAAUAUUACGUCAA | -3.11 ± 0.27 | –
GACGAGCAAUAUUACGUGAC | -2.77 ± 0.31 | -1.48 ± 0.26
GACGAGCAAUAUUACGUGGU | -2.84 ± 0.1 | -2.77 ± 0.14
GACUAGCAAUAUUACGAAAU | -1.07 ± 0.16 | 0.651 ± 0.26
GACUAGCAAUAUUACGACGC | 0.125 ± 0.1 | 0.0388 ± 0.14
GACUAGCAAUAUUACGAGAA | -1.29 ± 0.27 | -1.53 ± 0.17
GACUAGCAAUAUUACGAGAU | -2.93 ± 0.19 | -1.57 ± 0.21
GACUAGCAAUAUUACGCAUC | -3.16 ± 0.17 | -2.95 ± 0.22
GACUAGCAAUAUUACGCCAG | -1.31 ± 0.22 | –
GACUAGCAAUAUUACGCCCU | -9.77e-06 ± 0.2 | -0.315 ± 0.21
GACUAGCAAUAUUACGCGUU | – | -3.83 ± 0.39
GACUAGCAAUAUUACGCUGU | -3.22 ± 0.2 | -2.83 ± 0.28
GACUAGCAAUAUUACGCUUG | -1.96 ± 0.1 | -1.28 ± 0.13
GACUAGCAAUAUUACGGCGG | -3.72 ± 0.21 | -2.14 ± 0.13
GACUAGCAAUAUUACGGCUU | -0.318 ± 0.099 | 0.0615 ± 0.14
GACUAGCAAUAUUACGGGGA | -2.06 ± 0.11 | -0.995 ± 0.1
GACUAGCAAUAUUACGUCAC | -3.36 ± 0.4 | –
GACUAGCAAUAUUACGUGGA | -1.46 ± 0.13 | -1.07 ± 0.16
GACUAGCAAUAUUACGUGUG | -1.12 ± 0.055 | -0.793 ± 0.073
GACUAGCAAUAUUACGUUAG | -4.25 ± 0.23 | -3.17 ± 0.23
GACUAGCAAUAUUACGUUGA | -2.07 ± 0.21 | -1.59 ± 0.15
GACUAGCAAUAUUACGUUUU | -2.43 ± 0.095 | -1.42 ± 0.11
GAGAAGCAAUAUUACGAAGU | -2.98 ± 0.24 | -1.16 ± 0.27
GAGAAGCAAUAUUACGAGAC | -2.38 ± 0.3 | -2.64 ± 0.28

Sequence | self-splicing fitness (ln) (30 °C) | self-splicing fitness (ln) (37 °C)
GAGAAGCAAUAUUACGAUAG | -3.28 ± 0.14 | -2.28 ± 0.17
GAGAAGCAAUAUUACGAUGG | -2.74 ± 0.16 | -1.69 ± 0.18
GAGAAGCAAUAUUACGAUGU | -1.12 ± 0.13 | -0.819 ± 0.21
GAGAAGCAAUAUUACGCAGG | -2.26 ± 0.16 | -2.91 ± 0.2
GAGAAGCAAUAUUACGCGGC | -3.03 ± 0.23 | -0.0876 ± 0.18
GAGAAGCAAUAUUACGCGUU | -2.08 ± 0.23 | -0.752 ± 0.18
GAGAAGCAAUAUUACGGCCG | -0.178 ± 0.17 | -0.256 ± 0.34
GAGAAGCAAUAUUACGGCGU | -0.403 ± 0.12 | 0.0558 ± 0.16
GAGAAGCAAUAUUACGUAAU | -1.88 ± 0.1 | -0.98 ± 0.11
GAGAAGCAAUAUUACGUACG | -1.42 ± 0.1 | -0.572 ± 0.12
GAGAAGCAAUAUUACGUCGC | -2.17 ± 0.42 | –
GAGAAGCAAUAUUACGUUAA | -2.68 ± 0.2 | -2.18 ± 0.24
GAGAAGCAAUAUUACGUUUA | -2.13 ± 0.12 | -0.99 ± 0.12
GAGCAGCAAUAUUACGACAU | -1.29 ± 0.013 | -0.608 ± 0.033
GAGCAGCAAUAUUACGAUGA | -2.62 ± 0.25 | -1.03 ± 0.14
GAGCAGCAAUAUUACGCGCA | -0.638 ± 0.1 | 0.461 ± 0.12
GAGCAGCAAUAUUACGCGGA | -2.11 ± 0.11 | -0.965 ± 0.09
GAGCAGCAAUAUUACGGAAA | -3.08 ± 0.24 | -2.84 ± 0.21
GAGCAGCAAUAUUACGUCCA | -1.3 ± 0.3 | -0.418 ± 0.2
GAGCAGCAAUAUUACGUUGG | -0.945 ± 0.19 | -2.43 ± 0.23
GAGGAGCAAUAUUACGACUU | -2.79 ± 0.23 | -1.97 ± 0.2
GAGGAGCAAUAUUACGAGUU | -3.46 ± 0.35 | -2.05 ± 0.21
GAGGAGCAAUAUUACGAUUG | – | -1.93 ± 0.29
GAGGAGCAAUAUUACGCAAU | -2.36 ± 0.36 | –
GAGGAGCAAUAUUACGCAGG | -1.91 ± 0.35 | -2.08 ± 0.36

Sequence | self-splicing fitness (ln) (30 °C) | self-splicing fitness (ln) (37 °C)
GAGGAGCAAUAUUACGCGAG | – | -2.99 ± 0.35
GAGGAGCAAUAUUACGCGCA | -2.42 ± 0.2 | -0.968 ± 0.16
GAGGAGCAAUAUUACGCGCU | -3.28 ± 0.16 | -2.06 ± 0.16
GAGGAGCAAUAUUACGCUAC | -3.94 ± 0.37 | -2.66 ± 0.33
GAGGAGCAAUAUUACGCUAG | – | -1.8 ± 0.27
GAGGAGCAAUAUUACGGUAU | -2.88 ± 0.35 | -1.25 ± 0.45
GAGGAGCAAUAUUACGUCAC | -2.85 ± 0.25 | –
GAGGAGCAAUAUUACGUCGA | -2.17 ± 0.16 | -1.61 ± 0.15
GAGGAGCAAUAUUACGUCUA | -2.04 ± 0.12 | -0.687 ± 0.15
GAGGAGCAAUAUUACGUCUC | – | -0.811 ± 0.49
GAGGAGCAAUAUUACGUCUG | -1.73 ± 0.15 | -1.07 ± 0.18
GAGGAGCAAUAUUACGUCUU | -3.65 ± 0.2 | -2.35 ± 0.23
GAGGAGCAAUAUUACGUGAA | -2.45 ± 0.3 | -1.74 ± 0.3
GAGGAGCAAUAUUACGUGAC | -1.97 ± 0.3 | -0.137 ± 0.26
GAGGAGCAAUAUUACGUUGU | – | -1.87 ± 0.33
GAGUAGCAAUAUUACGAACC | -1.17 ± 0.12 | -0.433 ± 0.14
GAGUAGCAAUAUUACGAACU | -0.979 ± 0.14 | -0.323 ± 0.23
GAGUAGCAAUAUUACGAAGA | -2.63 ± 0.3 | –
GAGUAGCAAUAUUACGAAUC | -2.47 ± 0.23 | -2.31 ± 0.24
GAGUAGCAAUAUUACGACUU | -3 ± 0.15 | -2.63 ± 0.24
GAGUAGCAAUAUUACGAGGU | -2.24 ± 0.35 | –
GAGUAGCAAUAUUACGAUGG | -2.33 ± 0.3 | -0.76 ± 0.28
GAGUAGCAAUAUUACGCUUG | -0.859 ± 0.088 | -0.313 ± 0.11
GAGUAGCAAUAUUACGGCUG | -1.21 ± 0.19 | -1.54 ± 0.27
GAGUAGCAAUAUUACGUAGA | -4.32 ± 0.28 | -2.18 ± 0.19
